From US20090311714 come the findings set out here.

In data set [1] the target is T1, GlcNAc-MurNAc-L-Ala-D-iGln-L-(N-epsilon-D-iAsn)Lys-D-Ala.
T1 chain: AQKA

Data set [2] addresses T2, GlcNAc-MurNAc-L-Ala-D-iGln-L-Lys-D-Ala.
T2 chain: AQKA

In data set [3] the target is GlcNAc-MurNAc-L-Ala-D-iGlu-L-(N-epsilon-D-iAsn)Lys-D-Ala-D-Ala.
The target of data set [4] is T3, GlcNAc-MurNAc-L-Ala-D-iGlu-L-(N-epsilon-D-iAsn)Lys-D-Ala (not fully specified).
T3 chain: AEKA

The target of data set [5] is L-Ala-D-iGlu-L-Lys-D-Ala-D-Ala.
The target of another data set is T4, L-Ala-D-iGlu-L-Lys-D-Ala (not fully specified).
T4 chain: AEKA

In data set [6] the target is T5, N-alpha,N-epsilon-diacetyl-L-lysyl-D-alanine.
T5 chain: KA

Data set [7] concerns the target UDP-MurNAc-L-Ala-D-iGlu-L-Lys-D-Ala-D-Ala.
The target of data set [8] is T6, UDP-MurNAc-L-Ala-D-iGlu-L-Lys-D-Ala (not fully specified).
T6 chain: AEKA

B1: L,D-transpeptidase of Enterococcus faecium M512 (Ldtfm), soluble recombinant fragment, residues 119 to 466, with C-terminal polyhistidine tag (protein)
chain: MAEKQEIDPVSQNHQKLDTTVQTLTTKLTDLNKDRTPTTDATIEKAGDSFVIKPEVNGNTIDVDAAVKQLKSAVNSGKDTIELTEFKEKPKVTSEDSSLKEQLASMNAIANVKATYSINGETFQIPSSDIMSWLTYNDGKVDLDTEQVRQYVTDLGTKYNTSTNDTKFKSTKRGEVTVPVGTYSWTIQTDSETEALKKAILAGQDFTRSPIVQGGTTADHPLIEDTYIEVDLENQHMWYYKDGKVALETDIVSGKPTTPTPAGVFYVWNKEEDATLKGTNDDGTPYESPVNYWMPIDWTGVGIHDSDWQPEYGGDLWKTRGSHGCINTPPSVMKELFGMVEKGTPVLVFGSHHHHHH
For B1, the “formation of dimers, by mass spectrometry (in vitro L,D-transpeptidation)” value in [1] was “formation of dimers with two types of donors (tetrapeptide and tetrapeptide-iAsn) and two types of acceptors (tetrapeptide-iAsn and tripeptide-iAsn) in the four possible combinations”; in data set [2], “formation of dimers with two types of donors (tetrapeptide and tetrapeptide-iAsn) ...; The muropeptide containing an unsubstituted tetrapeptide stem was not used as an acceptor”. The “formation of radioactive peptides in the exchange assay with D-[14C]Ala as the acceptor” value in data set [3] is listed as “Formation of radioactive peptides was not detected”; in data set [4], “Formation of radioactive peptides was observed ... also with the complete disaccharide-tetrapeptide(iAsn) peptidoglycan unit”; in data set [5] it was “Formation of radioactive peptides was not detected”; with L-Ala-D-iGlu-L-Lys-D-Ala, “Formation of radioactive peptides was observed ... with other donors containing a tetrapeptide ending in D-Ala”; in data set [6] it was “Formation of radioactive peptides was observed not only with Ac2-L-Lys-D-Ala”; in [7] it was “Formation of radioactive peptides was not detected”. In addition, the “formation of radioactive peptides in the exchange assay with D-[14C]Ala as the acceptor” value in data set [8] is recorded as “Formation of radioactive peptides was observed ... with other donors containing a tetrapeptide ending in D-Ala”.

B2: D-aspartate ligase of Enterococcus faecium (Aslfm) (protein)
chain: MMNSIENEEFIPILLGSDMNVYGMARSFNEAYGKICQAYASDQLAPTRYSKIVNVEVIPGFDKDPVFIETMLRLAKERYSDKSKKYLLIACGDGYAELISQHKQELSEYFICPYIDYSLFERLINKVSFYEVCEEYDLPYPKTLIVREEMLVNGHLEQELPFEFPVALKPANSVEYLSVQFEGRKKAFILETREEFDLILGRIYEAGYKSEMIVQDFIPGDDSNMRVLNAYVDEDHQVRMMCLGHPLLEDPTPASIGNYVVIMPDYNEKIYQTIKAFLEKIEYTGFANFDMKYDPRDGEYKLFEINLRQGRSSFFVTLNGLNLARFVTEDRVFNKPFVETTYGTNQSDKARLWMGVPKKIFLEYARENEDKKLAEQMIKENRYGTTVFYEKDRSIKRWLLMKYMFHNYIPRFKKYFHVKEG
Turning to B2, in data set [7], the “formation of [14C]UDP-MurNac-hexapeptide in the D-aspartate ligase assay” value is listed as “Addition of 2 µg of purified protein in the D-aspartate ligase assay resulted in the formation of a radioactive product corresponding to the labeled hexapeptide”.
